Data: patent US5580958, “Polypeptides encoding transcriptional activators and uses thereof” (La Jolla Cancer Research Foundation)

Molecular target: PU.1 beta-galactosidase fusion (lambda 25.1, Ly25.1) (Mus musculus, UniProt P17433 P17433:1-272)
Test: Southwestern blot with multimerized 33-mer; methylation interference protects three G in GAGGAA; lower affinity than PU-1
Details: tags: beta-galactosidase fusion, partially purified on anti-beta-gal Sepharose; label: 32P
Method: Production of beta-Galactosidase Fusion Protein and Western and Southwestern Analyses Lysogens were prepared from the lambda 25.1 and lambda 24.1 clones as described (Sturm et al., 1988) and the fusion proteins partially purified using anti-beta-galactosidase antibody bound to Sepharose (5 Prime - 3 Prime, Inc., Paoli, Pa.), as described by the manufacturer. Western and Southwestern analyses were carried out as described (Staudt et al., 1988).
Bacterial extracts prepared from lambda-gt11 and lambda 25.1 lysogens were fractionated on a 7.5% SDS-polyacrylamide gel, transferred to nitrocellulose and probed with labeled multimerized 33-mer. Only the lane with the lambda 25.1 extract contained a protein able to bind the probe. […] The positive filter was subsequently treated with rabbit antiserum to beta-galactosidase and mouse anti-rabbit immunoglobulin horseradish peroxidase conjugate. […] The appearance of several bands of lower molecular size are probably the result of degradation of the 150 kDa species. […] Some breakdown of the beta-galactosidase occurred in this sample resulting in a band at about 69 kDa.

B1: MHC class II I-A beta 33-mer (tetramer probe) (dsDNA)
DNA 1: GATCCGTCCCAAGTGAGGAACCAATCAGCATTG
DNA 2: CAATGCTGATTGGTTCCTCACTTGGGACGGATC
- binding result: binds
